The source of these data is US20260242735A1 (UNIVERSIT T BASEL, published 2026).

B1: Refmab #4 (antibody, V domains shown)
VH: QVQLVQSGAEVKKPGESVKVSCKASGYTFTNYGMNWVKQAPGQGLEWMGWINTYTGEPTYADKFQGRVTMTTDTSTSTAYMEIRNLGGDDTAVYYCARWSWSDGYYVYFDYWGQGTSVTVSS
VL: DIVMTQSPDSLTVSLGERTTINCKSSQSVLDSSTNKNSLAWYQQKPGQPPKLLLSWASTRESGIPDRFSGSGSGTDFTLTIDSPQPEDSATYYCQQSAHFPITFGQGTRLEIK
notes: The alanine scan used IgG or Fab
B2: Refmab #2 (antibody, V domains shown)
VH: QVQLVQSGAEVKKPGSSVKVSCKASGGTFSDYAISWVRQAPGQGLEWMGRIIPILGVADYAQKFQGRVTITADKSTRTAYMELSSLRSEDTAVYYCARNWADAFDIWGQGTMVTVSS
VL: DIQLTQSPSSLSASVGDRVTITCRASQGISSVLAWYQQKPGKAPKLLIYDASSLESGVPSRFSGSGSGTDFTLTISSLQPEDFATYYCQQFDSSITFGQGTKLEIK
notes: as for B1
B3: Refmab #3 (antibody, V domains shown)
VH: QVQLVQSGAEVKKPGSSVKVSCKASGYTFTDYNMHWVRQAPGQGLEWIGYIYPYNGGTGYNQKFKSKATITADESTNTAYMELSSLRSEDTAVYYCARGRPAMDYWGQGTLVTVSS
VL: DIQMTQSPSSLSASVGDRVTITCRASESVDNYGISFMNWFQQKPGKAPKLLIYAASNQGSGVPSRFSGSGSGTDFTLTISSLQPDDFATYYCQQSKEVPWTFGQGTKVEIK
notes: as for B1
B4: Refmab #1 (antibody, V domains shown)
VH: EVQLVQSGAEVKKPGSSVKVSCKASGYTITDSNIHWVRQAPGQSLEWIGYIYPYNGGTDYNQKFKNRATLTVDNPTNTAYMELSSLRSEDTAFYYCVNGNPWLAYWGQGTLVTVSS
VL: DIQLTQSPSTLSASVGDRVTITCRASESLDNYGIRFLTWFQQKPGKAPKLLMYAASNQGSGVPSRFSGSGSGTEFTLTISSLQPDDFATYYCQQTKEVPWSFGQGTKVEVK
notes: The alanine scan used IgG or Fab; also called hP67.6

human CD33 K250A, sequence (P20138 18-364 K250A limits assumed): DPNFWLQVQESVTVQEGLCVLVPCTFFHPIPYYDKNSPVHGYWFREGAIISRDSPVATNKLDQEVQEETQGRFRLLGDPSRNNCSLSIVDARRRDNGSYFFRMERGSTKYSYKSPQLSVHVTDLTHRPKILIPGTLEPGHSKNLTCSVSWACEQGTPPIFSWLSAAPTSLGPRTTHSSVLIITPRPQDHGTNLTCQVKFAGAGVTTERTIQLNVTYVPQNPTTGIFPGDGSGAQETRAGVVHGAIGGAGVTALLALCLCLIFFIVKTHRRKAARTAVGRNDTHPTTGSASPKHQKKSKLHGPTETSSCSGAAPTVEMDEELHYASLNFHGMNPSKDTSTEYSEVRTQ
human CD33 A289S, sequence (P20138 18-364 A289S limits assumed): as the sequence (P20138 18-364 K250A limits assumed) above, with A233K, A272S counted along it

The first experiment has as its target human CD33 K250A (human, UniProt P20138 18-364). Description: alanine scan, flow cytometry, HEK293-T. (In general: In flow cytometry, cells or beads pass a laser one at a time.)
Experimental: (§1) An alanine scan on human CD33 was performed to the determine the residues on CD33 that are involved in binding to the antibodies investigated. […] Briefly, a mutation library of CD33 was created by high-throughput, site-directed mutagenesis. Each residue was individually mutated to alanine, with alanine codons mutated to serine. The mutant library was arrayed in 384-well microplates and transiently transfected into HEK293-T. Following transfection, cells were incubated with the indicated antibodies (IgG or Fab) at concentrations pre-determined using an independent immunofluorescence titration curve on wild type CD33. […] Binding of each antibody to each mutant clone was determined in duplicates. For each point, background fluorescence was subtracted from the raw data, which were then normalized to antibody reactivity with wild type CD33.
(§2) Critical residues for antibody binding (outlined in dark grey) were residues whose mutations led to a binding of the test Abs of less than 20%. Additional secondary residues (outlined in light grey) were identified that led to a binding of the test Abs of between 20 and 40% as compared to the wild type CD33.
In the case of B1, the “Mean % WT Binding” value worked out at 106 % WT binding.

Consider B2, for which the “Mean % WT Binding” value was found to be 108 % WT binding.

As to B3, the “Mean % WT Binding” value came out at 146 % WT binding.

For B4, the “Mean % WT Binding” value came out at 86.7 % WT binding.

In a further experiment the target is human CD33 R254A (human, UniProt P20138 18-364). Description: alanine scan, flow cytometry, HEK293-T.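 Note: antibody binding to each alanine-substituted CD33 mutant expressed transiently in HEK293-T, read as fluorescence minus background, mean of duplicates, relative to wild-type CD33 set as 100%.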
human CD33 R254A, sequence (P20138 18-364 R254A limits assumed): as the sequence (P20138 18-364 K250A limits assumed) above, with A233K, R237A counted along it
Experimental: as §1, §2
As for B1, the “Mean % WT Binding” value is 101 % WT binding.

As to B2, the “Mean % WT Binding” value came out at 118 % WT binding.

Take B3: the “Mean % WT Binding” value stood at 88.4 % WT binding.

For the molecule B4, the “Mean % WT Binding” value came out at 101 % WT binding.

For a further experiment, the target named is human CD33 A255S (human, UniProt P20138 18-364). Description: alanine scan, flow cytometry, HEK293-T.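 Note: antibody binding to each alanine-substituted CD33 mutant expressed transiently in HEK293-T, read as fluorescence minus background, mean of duplicates, relative to wild-type CD33 set as 100%.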
human CD33 A255S, sequence (P20138 18-364 A255S limits assumed): as the sequence (P20138 18-364 K250A limits assumed) above, with A233K, A238S counted along it
Experimental: as §1, §2
Turning to B1, the “Mean % WT Binding” value was 113 % WT binding.

Consider B2, for which the “Mean % WT Binding” value turned out to be 109 % WT binding.

Turning to B3, the “Mean % WT Binding” value worked out at 97.7 % WT binding.

On to B4, for which the “Mean % WT Binding” value came out at 98.8 % WT binding.

For a further experiment, the target named is human CD33 G266A (human, UniProt P20138 18-364). Description: alanine scan, flow cytometry, HEK293-T.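 Note: antibody binding to each alanine-substituted CD33 mutant expressed transiently in HEK293-T, read as fluorescence minus background, mean of duplicates, relative to wild-type CD33 set as 100%.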
human CD33 G266A, sequence (P20138 18-364 G266A limits assumed): as the sequence (P20138 18-364 K250A limits assumed) above, with A233K, G249A counted along it
Experimental: as §1, §2
With B1, the “Mean % WT Binding” value stood at 112 % WT binding.

Regarding B2, the “Mean % WT Binding” value turned out to be 116 % WT binding.

B3: the “Mean % WT Binding” value worked out at 97.8 % WT binding.

In the case of B4, the “Mean % WT Binding” value stood at 100 % WT binding.

For the next experiment, the target named is human CD33 C276A (human, UniProt P20138 18-364). Description: alanine scan, flow cytometry, HEK293-T.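 Note: antibody binding to each alanine-substituted CD33 mutant expressed transiently in HEK293-T, read as fluorescence minus background, mean of duplicates, relative to wild-type CD33 set as 100%.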
human CD33 C276A, sequence (P20138 18-364 C276A limits assumed): as the sequence (P20138 18-364 K250A limits assumed) above, with A233K, C259A counted along it
Experimental: as §1, §2
For B1, the “Mean % WT Binding” value was 96.9 % WT binding.

For the molecule B2, the “Mean % WT Binding” value was 103 % WT binding.

With B3, the “Mean % WT Binding” value is 115 % WT binding.

With B4, the “Mean % WT Binding” value worked out at 83.4 % WT binding.

The target of another experiment is human CD33 I281A (human, UniProt P20138 18-364). Description: alanine scan, flow cytometry, HEK293-T.
human CD33 I281A, sequence (P20138 18-364 I281A limits assumed): as the sequence (P20138 18-364 K250A limits assumed) above, with A233K, I264A counted along it
Experimental: as §1, §2
With B1, the “Mean % WT Binding” value turned out to be 122 % WT binding.

B2: the “Mean % WT Binding” value turned out to be 114 % WT binding.

Turning to B3, the “Mean % WT Binding” value was 91 % WT binding.

B4: the “Mean % WT Binding” value worked out at 85 % WT binding.

The target of a further experiment is human CD33 V282A (human, UniProt P20138 18-364). Description: alanine scan, flow cytometry, HEK293-T.
human CD33 V282A, sequence (P20138 18-364 V282A limits assumed): as the sequence (P20138 18-364 K250A limits assumed) above, with A233K, V265A counted along it
Experimental: as §1, §2
As for B1, the “Mean % WT Binding” value came to 111 % WT binding.

B2: the “Mean % WT Binding” value stood at 112 % WT binding.

Turning to B3, the “Mean % WT Binding” value is 73.2 % WT binding.

As to B4, the “Mean % WT Binding” value was 109 % WT binding.

A further experiment addresses human CD33 A289S (human, UniProt P20138 18-364). Description: alanine scan, flow cytometry, HEK293-T.
Experimental: as §1, §2
Consider B1, for which the “Mean % WT Binding” value worked out at 95 % WT binding.

For B2, the “Mean % WT Binding” value was 111 % WT binding.

Consider B3, for which the “Mean % WT Binding” value turned out to be 82.8 % WT binding.

With B4, the “Mean % WT Binding” value was 97.1 % WT binding.

The target in the next experiment is human CD33 T292A (human, UniProt P20138 18-364). Description: alanine scan, flow cytometry, HEK293-T.
human CD33 T292A, sequence (P20138 18-364 T292A limits assumed): as the sequence (P20138 18-364 K250A limits assumed) above, with A233K, T275A counted along it
Experimental: as §1, §2
Take B1: the “Mean % WT Binding” value came out at 100 % WT binding.

Regarding B2, the “Mean % WT Binding” value was 94.2 % WT binding.

Regarding B3, the “Mean % WT Binding” value is 99.6 % WT binding.

For the molecule B4, the “Mean % WT Binding” value was 89.5 % WT binding.

The target in a further experiment is human CD33 N297A (human, UniProt P20138 18-364). Description: alanine scan, flow cytometry, HEK293-T.
human CD33 N297A, sequence (P20138 18-364 N297A limits assumed): as the sequence (P20138 18-364 K250A limits assumed) above, with A233K, N280A counted along it
Experimental: as §1, §2
B1: the “Mean % WT Binding” value came out at 88.9 % WT binding.

Regarding B2, the “Mean % WT Binding” value was determined as 108 % WT binding.

Consider B3, for which the “Mean % WT Binding” value amounted to 133 % WT binding.

On to B4, for which the “Mean % WT Binding” value came out at 94.9 % WT binding.

For another experiment, the target named is human CD33 D298A (human, UniProt P20138 18-364). Description: alanine scan, flow cytometry, HEK293-T.
human CD33 D298A, sequence (P20138 18-364 D298A limits assumed): as the sequence (P20138 18-364 K250A limits assumed) above, with A233K, D281A counted along it
Experimental: as §1, §2
With B1, the “Mean % WT Binding” value is 83.9 % WT binding.

For the molecule B2, the “Mean % WT Binding” value came out at 81.5 % WT binding.

With B3, the “Mean % WT Binding” value was determined as 80.1 % WT binding.

In the case of B4, the “Mean % WT Binding” value was 97.8 % WT binding.

Another experiment deals with human CD33 T299A (human, UniProt P20138 18-364). Description: alanine scan, flow cytometry, HEK293-T.
human CD33 T299A, sequence (P20138 18-364 T299A limits assumed): as the sequence (P20138 18-364 K250A limits assumed) above, with A233K, T282A counted along it
Experimental: as §1, §2
On to B1, for which the “Mean % WT Binding” value is 92.9 % WT binding.

Regarding B2, the “Mean % WT Binding” value is 96.3 % WT binding.

On to B3, for which the “Mean % WT Binding” value amounted to 85.6 % WT binding.

Regarding B4, the “Mean % WT Binding” value came out at 90.3 % WT binding.

In the next experiment the target is human CD33 G245A (human, UniProt P20138 18-364). Description: alanine scan, flow cytometry, HEK293-T.
human CD33 G245A, sequence (P20138 18-364 G245A limits assumed): as the sequence (P20138 18-364 K250A limits assumed) above, with G228A, A233K counted along it
Experimental: as §1, §2
For B1, the “Mean % WT Binding” value was found to be 94.9 % WT binding.

Turning to B2, the “Mean % WT Binding” value amounted to 112 % WT binding.

Regarding B3, the “Mean % WT Binding” value was found to be 127 % WT binding.

Turning to B4, the “Mean % WT Binding” value stood at 84.3 % WT binding.

The target in the next experiment is human CD33 P308A (human, UniProt P20138 18-364). Description: alanine scan, flow cytometry, HEK293-T.
human CD33 P308A, sequence (P20138 18-364 P308A limits assumed): as the sequence (P20138 18-364 K250A limits assumed) above, with A233K, P291A counted along it
Experimental: as §1, §2
Regarding B1, the “Mean % WT Binding” value came out at 99.8 % WT binding.

Turning to B2, the “Mean % WT Binding” value is 89.7 % WT binding.

Take B3: the “Mean % WT Binding” value was found to be 82.8 % WT binding.

As for B4, the “Mean % WT Binding” value is 94.3 % WT binding.

The target of a further experiment is human CD33 S314A (human, UniProt P20138 18-364). Description: alanine scan, flow cytometry, HEK293-T.
human CD33 S314A, sequence (P20138 18-364 S314A limits assumed): as the sequence (P20138 18-364 K250A limits assumed) above, with A233K, S297A counted along it
Experimental: as §1, §2
With B1, the “Mean % WT Binding” value was found to be 95.5 % WT binding.

For B2, the “Mean % WT Binding” value turned out to be 95.5 % WT binding.

For B3, the “Mean % WT Binding” value came to 139 % WT binding.

For B4, the “Mean % WT Binding” value came to 96.2 % WT binding.
